In US8084228B2, “Nogo-B receptor antagonists” (Yale University, priority 2006, dated 2011):

T1: Nogo receptor (Homo sapiens, UniProt Q9BZR6)
T1 construct: expressed in transfected cells; host or cells: COS-7
T1 sequence (Q9BZR6 27-447): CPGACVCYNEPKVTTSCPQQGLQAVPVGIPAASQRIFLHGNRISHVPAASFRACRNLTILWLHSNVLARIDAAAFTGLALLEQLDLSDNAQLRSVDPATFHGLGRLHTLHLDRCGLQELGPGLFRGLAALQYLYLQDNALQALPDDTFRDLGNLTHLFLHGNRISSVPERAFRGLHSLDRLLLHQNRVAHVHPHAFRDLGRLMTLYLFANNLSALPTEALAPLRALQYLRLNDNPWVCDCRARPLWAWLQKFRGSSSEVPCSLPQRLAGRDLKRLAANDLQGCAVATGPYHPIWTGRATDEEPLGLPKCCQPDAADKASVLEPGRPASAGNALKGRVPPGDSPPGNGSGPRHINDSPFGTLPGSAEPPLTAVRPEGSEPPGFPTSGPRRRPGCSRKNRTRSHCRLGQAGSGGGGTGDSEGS

T2: NgBR (Homo sapiens, UniProt Q96E22)
T2 sequence (Q96E22 1-293): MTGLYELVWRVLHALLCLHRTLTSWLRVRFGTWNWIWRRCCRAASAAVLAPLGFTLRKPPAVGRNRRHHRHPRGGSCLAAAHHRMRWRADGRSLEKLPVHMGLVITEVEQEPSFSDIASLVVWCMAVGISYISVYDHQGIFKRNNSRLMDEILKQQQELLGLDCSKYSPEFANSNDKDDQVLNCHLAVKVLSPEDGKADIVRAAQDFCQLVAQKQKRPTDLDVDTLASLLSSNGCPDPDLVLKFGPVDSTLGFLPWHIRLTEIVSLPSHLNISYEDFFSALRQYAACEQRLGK

B1: AP-Nogo-66: AP fusion of Nogo-66, a 66 amino acid residue loop in the RHD (protein)
chain: RIYKGVIQAIQKSDEGHPFRAYLESEVAISEELVQKYSNSALGHVNCTIKELRRLFLVDDLVDSLK
modifications: left off: large carriers
notes: AP fusion of Nogo-66, a 66 amino acid residue loop in the RHD
B2: AP-Nogo-B (amino acids 1-180): AP fusion with amino acids 1-180 of Nogo-B (protein)
chain: MEDLDQSPLVSSSDSPPRPQPAFKYQFVREPEDEEEEEEEEEEDEDEDLEELEVLERKPAAGLSAAPVPTAPAAGAPLMDFGNDFVPPAPRGPLPAAPPVAPERQPSWDPSPVSSTVPAPSPLSAAAVSPSKLPEDDEPPARPPPPPPASVSPQAEPVWTPPAPAPAAPPSTPAAPKRRG
modifications: left off: large carriers
notes: AP fusion with amino acids 1-180 of Nogo-B
B3: Ap-Nogo-B (61-200): AP fusion with amino acids 61-200 of Nogo-B (protein)
chain: AGLSAAPVPTAPAAGAPLMDFGNDFVPPAPRGPLPAAPPVAPERQPSWDPSPVSSTVPAPSPLSAAAVSPSKLPEDDEPPARPPPPPPASVSPQAEPVWTPPAPAPAAPPSTPAAPKRRGSSGSVVVDLLYWRDIKKTGV
modifications: left off: large carriers
notes: AP fusion with amino acids 61-200 of Nogo-B
B4: AP-Nogo-A (59-172): AP fusion with biologically active domain 59-172 of Nogo-A (protein)
chain: PAAGLSAAPVPTAPAAGAPLMDFGNDFVPPAPRGPLPAAPPVAPERQPSWDPSPVSSTVPAPSPLSAAAVSPSKLPEDDEPPARPPPPPPASVSPQAEPVWTPPAPAPAAPPST
modifications: left off: large carriers

Legend:
[1] = test system: Endothelial cells; experiment: Am-Nogo-B-induced migration of endothelial cells, inhibition by NgBR ectodomain peptides or fusion protein; format: cell-based; conditions: peptide 200 nM, Am-Nogo-B 100 nM
Experimental: (§1) Cell migration was examined in modified Boyden chambers using 10 nM each of purified recombinant AP, AP fusion of Nogo-66 (AP-Nogo-66) or Am-Nogo-B. The transwell inserts (Costar transwell inserts; Corning) were coated with a solution of 0.1% gelatin (Sigma) in PBS at 4° C. overnight and then air-dried. VEGF at 50 ng/mL (1.1 nM) or recombinant Am-Nogo-B at various concentrations dissolved in medium 199 containing 0.1% BSA was added in the bottom chamber of the Boyden apparatus. HUVEC (200,000 cells) suspended in a 100 μL aliquot of medium 199 containing 0.1% BSA was added to the upper chamber. After 5 hours incubation, cells on both sides of the membrane were fixed and stained with a Diff-Quik staining kit (Baxter Healthcare, Miami, Fla.). The average number of cells from five randomly chosen high-power (×400) fields on the lower side of the membrane was counted.
Endothelial cells were incubated with vehicle (control) of one of peptides P1-P4 (200 nM each) in the presence of Am-Nogo-B (100 nM).
Similarly, treatment of endothelial cells with mFc-ecto, but not mFc, blocked Am-Nogo-B-induced cell migration (FIG. 35).

[2] = test system: NgBR mRNA; experiment: NgBR mRNA by quantitative PCR after siRNA transfection of HUVEC; format: cell-based, human; conditions: 72 hours after transfection, normalized to 18S
Experimental: (§2) NgBR siRNA oligonucleotides (SEQ ID NOS:2-5) with 3′ dTdT overhangs were synthesized by Qiagen. Control siRNA in experiments refers to a nonsilencing (NS) siRNA (NS forward: UUCUCCGAACGUGUCACGU, SEQ ID NO:7; NS reverse: ACGUGACACGUUCGGAGAA, SEQ ID NO:8) designed and synthesized by Qiagen. HUVEC and CHO stable cell lines were transfected with siRNA by using Oligofectamine. Quantification of NgBR mRNA and protein, ligand binding assay, and migration assay were performed at 72 hours after transfection.
Total RNA from cells was isolated by using the RNeasy kit (Qiagen). Reverse transcription was then performed by using 100 ng of RNA and the Superscript First-Strand Synthesis System kit (Invitrogen). Real-time PCR analysis was done with the iCycler iQ detection system using the iQ SYBR green Supermix kit (Bio-Rad). The NgBR mRNA level was normalized by housekeeping gene 18S. The following primers were used for NgBR: forward, 5′-[…]-3′ (SEQ ID NO:9) and reverse, 5′-[…]-3′ (SEQ ID NO:10). The following primers were used for 18S: forward, 5′-[…]-3′ (SEQ ID NO:11) and reverse, 5′-[…]-3′ (SEQ ID NO:12).

[3] = test system: HUVEC; experiment: AP-Am-Nogo-B binding to HUVEC after siRNA transfection; format: cell-based, human; conditions: 72 hours after siRNA transfection
Experimental: (§3) To detect AP-Am-Nogo-B binding, cultures were washed with Hanks' balanced salt solution (HBSS) containing 20 mM HEPES, pH 7.5, and 1 mg/mL BSA (HBH). The plates were then incubated with AP-Am-Nogo-B in DMEM containing 20 mM Hepes, pH 7.5, and 1 mg/mL BSA for 2 hours at 4° C. The bound AP-Am-Nogo-B was detected by using the Blue Substrate kit (Vector Laboratories). The blue staining was examined by using the ODYSSEY Infrared Imaging System (Li-Cor, Lincoln, Nebr.) and confirmed by microscopy. Alternatively, the bound AP-Am-Nogo-B was extracted with Triton X-100, and AP activity was colorimetrically quantified by using p-nitrophenyl phosphate (Sigma) as substrate after heat inactivation of endogenous AP. Non-specific binding was determined by measuring binding in the presence of a 100-fold molar excess of recombinant Am-Nogo-B lacking the AP fusion protein. Specific binding was determined by subtracting the non-specific binding from total binding. For determination of apparent Kd, the binding of AP-Am-Nogo-B was measured in triplicate as described above and the Kd value was quantified by using the Scatchard plot program of GraphPad PRISM (one-site binding, linear regression) using the ratio of bound ligand to free ligand as the y axis and bound ligand (pM) as the x axis.
as §2

[4] = test system: HUVEC; experiment: HUVEC migration in modified Boyden chambers; format: cell-based, human; conditions: 10 nM purified recombinant protein, 5 hours
Experimental: The migratory response of human umbilical vein endothelial cells (HUVEC) in response to a gradient of recombinant, purified alkaline phosphatase (AP) fusion protein expressing Am-Nogo-B or a recombinant purified Am-Nogo-B was examined. HUVEC were cultured in M199 with 20% FBS and endothelial cell growth supplement (ECGS).
as §1

[5] = test system: HUVEC; experiment: Binding of AP fusion proteins to the surface of HUVEC; set-up: species or system human; conditions: HUVEC (FIGS. 12, 15)
Experimental: as §3

[6] = target: T1, Nogo receptor; experiment: AP fusion protein binding to COS cells transfected with cDNA encoding the Nogo receptor; conditions: COS cells (FIG. 6)
Experimental: as §3
(§4) For expression cloning of Am-Nogo-B receptor, pools of 5,000 arrayed clones from a human heart cDNA library (OriGene Technologies, Rockville, Md.) were transfected into COS-7 cells, and AP-Am-Nogo-B binding was assessed by using AP versus AP-Am-Nogo-B binding and detection of the AP product by near-infrared cell imaging (Li-Cor, Lincoln, Nebr.) or AP activity assays.

[7] = target: T2, NgBR; experiment: AP fusion protein binding to CHO cells expressing NgBR; set-up: an isolated cDNA encoding NgBR is 2,636 base pairs encoding an open reading frame of 293 amino acids; expressed in transfected cells; conditions: for surface binding of AP fusion domains to NgBR-expressing cells: CHO cells expressing NgBR (FIGS. 11, 14)
Experimental: as §3
A recombinant AP-Am-Nogo-B fusion protein was used to screen a cDNA expression library from human heart (500,000 independent clones) transfected into COS or CHO cells using Lipofectamine 2000 (Invitrogen). COS-7 cells were cultured in high-glucose DMEM with 10% FBS. CHO cells were cultured in MEM-α with 5% FBS.

[8] = target: T2, NgBR; experiment: AP fusion protein binding to COS cells transfected with the isolated NgBR cDNA; set-up: an isolated cDNA encoding NgBR is 2,636 base pairs encoding an open reading frame of 293 amino acids; expressed in transfected cells; host or cells: COS-7 (A4); conditions: COS cells (FIG. 6)
Experimental: as §3, §4
Single NgBR cDNA clones were isolated by sib selection and sequenced. […] The HA-tagged NgBR was immunoisolated with anti-HA immunobeads (Roche, Indianapolis, Ind.) and associated proteins analyzed by Western blotting. For the Western blots, expression of NgBR-HA was detected by using anti-HA (Roche) and NgBR (Imgenex), respectively, and beta-actin (Sigma) or Hsp90 (BD Biosciences-Pharmingen) was used to control for loading.

Molecule | Am-Nogo-B-induced migration of endothelial cells in presence of peptide [1] | surface binding of AP fusion domains to HUVEC [5] | surface binding of AP fusion domains to NgBR-expressing cells [7] | also measured
P4: NgBR ectodomain peptide ADGRSLEKLPVHMGLVITEVEQEPSFSD (SEQ ID NO: 16) (listed as Homo sapiens) | to a lesser extent |  |  | 
nonsilencing RNA: nonsilencing (NS) control siRNA by Qiagen; forward UUCUCCGAACGUGUCACGU (SEQ ID NO:7) (antisense ACGUGACACGUUCGGAGAA; listed as RNA, chemistry not given here) [reference compound] |  |  |  | level of NgBR mRNA [2]: not; binding of AP-Am-Nogo-B to HUVEC [3]: not
P2: NgBR ectodomain peptide LAPLGFTLRKPPAVGRNRRHHRHPRGGSCL (SEQ ID NO: 14) (listed as Homo sapiens) | effectively reduced |  |  | 
scrambled version of P2: scrambled P2 control PGRHLKPSRFNARLHGPCRVLRAHGPLTRG (SEQ ID NO: 17) (scrambled version of SEQ ID NO 14) [reference compound] | did not block |  |  | 
PP2: truncated version of P2, TLRKPPAVGRNRRHHRHPRG (SEQ ID NO: 18) (listed as Homo sapiens) | nearly identical to that of P2 |  |  | 
B1 |  | did not bind | did not bind | HUVEC migration [4]: does not promote; binding to COS cells transfected with Nogo receptor cDNA [6]: selectively bind; binding to CHO cells stably expressing NgBR ([7]; increasing concentrations, 2 hours at 4° C.): not; binding to COS cells transfected with the isolated NgBR cDNA [8]: not
B2 |  | did not bind | did not bind | 
B3 |  | did | did | 
B4 |  | did not bind | did not bind | 
